Experimental findings from the supplement of paper PMC10126150 are described below.

± gives the standard deviation of the averaged measurements.

The data set relates to ATP. Put plainly: switch fluorescence ratio, 500 uM ATP over buffer (Cy3 cluster intensity, sum of 5 cycles each) (fold (ratio)); higher = stronger signal-on switching upon ATP binding; sequences stand for … in TCGTCGGCAGCGTCAGATGTGTATAAGAGACAGTTTTTTTTTTTTTTTTTTTTTTTTT…TC. The note with it: aptamer strand: ATP DNA aptamer (quencher-CACCTGGGGGAGTATTGCGGAGGAAGG + anchor), 100 nM annealed; ATP concentration: 500 uM. An outline of the steps: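 Clusters with intensities outside 100-1000 RFU were excluded. The remaining Cy3-labelled switching-strand clusters on a modified Illumina MiSeq flow-cell had been annealed to 100 nM quencher-labelled ATP aptamer and imaged in selection buffer, then after 15 min with 500 uM ATP at 22 °C, for five cycles separated by NaOH stripping and re-annealing. The fluorescence ratio, averaged per switch-domain sequence, is each cluster's summed target-cycle Cy3 intensity over its summed buffer-cycle Cy3 intensity.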
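Further: ATP exposure 15 min at 22 °C before imaging.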

Regarding TTTTTATTGG, the switch fluorescence ratio came to 0.985 ± 0.025.

Turning to TTTTTATTTC, the switch fluorescence ratio was 1 ± 0.019. For TTTTTATTTT, the switch fluorescence ratio was 1.01 ± 0.074. As for TTTTTCAACT, the figure is 1.03 ± 0.036; as for TTTTTCAGGA, 0.975 ± 0.024. TTTTTCAGGC: the switch fluorescence ratio came out at 0.969 ± 0.055. On to TTTTTCATAA, for which the switch fluorescence ratio was 0.999 ± 0.027. Consider TTTTTCATCC, for which the switch fluorescence ratio was 1.18 ± 0.31.

For TTTTTCATTT, the switch fluorescence ratio turned out to be 1.01 ± 0.023. On to TTTTTCCAAC, for which the switch fluorescence ratio was determined as 1.02 ± 0.012. As for TTTTTCCCGC, the figure is 1.07 ± 0.053; as for TTTTTCCTCT, 1.036 ± 0.0026; as for TTTTTCGGCA, 1.31 ± 0.43. With TTTTTCTCAG, the switch fluorescence ratio amounted to 1.01 ± 0.031. As for TTTTTCTGGG, the switch fluorescence ratio stood at 0.977 ± 0.0099. Consider TTTTTCTTGT, for which the switch fluorescence ratio stood at 1.01 ± 0.047. Turning to TTTTTCTTTT, the switch fluorescence ratio came to 0.993 ± 0.029. Turning to TTTTTGACTG, the switch fluorescence ratio was 0.994 ± 0.075. For TTTTTGAGAT, the switch fluorescence ratio is 0.994 ± 0.03. As for TTTTTGAGCG, the figure is 1.04 ± 0.0024; as for TTTTTGATGT, 0.994 ± 0.022. On to TTTTTGCGGC, for which the switch fluorescence ratio is 0.999 ± 0.03. In the case of TTTTTGCTGC, the switch fluorescence ratio turned out to be 0.999 ± 0.024. As to TTTTTGGAGA, the switch fluorescence ratio amounted to 0.994 ± 0.025. In the case of TTTTTGGCCG, the switch fluorescence ratio worked out at 1.06 ± 0.034. For the sequence TTTTTGGCTG, the switch fluorescence ratio came to 0.9818 ± 0.0049. Take TTTTTGGTTG: the switch fluorescence ratio was found to be 1.01 ± 0.012.

Regarding TTTTTGGTTT, the switch fluorescence ratio worked out at 1.02 ± 0.083. Take TTTTTGTAGA: the switch fluorescence ratio came out at 1.01 ± 0.022. TTTTTGTGTA: the switch fluorescence ratio is 0.969 ± 0.012.

Take TTTTTGTT: the switch fluorescence ratio is 0.99 ± 0.0068. Regarding TTTTTGTTGG, the switch fluorescence ratio was found to be 1 ± 0.034. With TTTTTGTTGT, the switch fluorescence ratio was determined as 1.01 ± 0.052. Consider TTTTTGTTT, for which the switch fluorescence ratio was determined as 0.988 ± 0.01. TTTTTTAAAG: the switch fluorescence ratio came to 0.99843 ± 0.00078. Consider TTTTTTACCT, for which the switch fluorescence ratio worked out at 1.2 ± 0.015. Turning to TTTTTTAGAA, the switch fluorescence ratio was found to be 1.01 ± 0.025. In the case of TTTTTTAGAC, the switch fluorescence ratio is 1.04 ± 0.08. As for TTTTTTAGC, the figure is 1.02 ± 0.03; as for TTTTTTAGCA, 1.02 ± 0.023; as for TTTTTTAGGT, 0.99 ± 0.03.

Turning to TTTTTTAGTC, the switch fluorescence ratio was 1 ± 0.04.

As to TTTTTTAGTT, the switch fluorescence ratio is 0.992 ± 0.025. With TTTTTTATAG, the switch fluorescence ratio amounted to 1 ± 0.038. As for TTTTTTATGT, the figure is 0.995 ± 0.029. As for TTTTTTATT, the figure is 0.963 ± 0.013; as for TTTTTTATTA, 0.986 ± 0.023; as for TTTTTTCAAC, 1.15 ± 0.26. Take TTTTTTCACT: the switch fluorescence ratio was found to be 1.17 ± 0.34. In the case of TTTTTTCATT, the switch fluorescence ratio is 1.02 ± 0.052.

TTTTTTCCCA: the switch fluorescence ratio came out at 1.01 ± 0.011.

For the sequence TTTTTTCTAT, the switch fluorescence ratio was 0.996 ± 0.067. With TTTTTTGAAA, the switch fluorescence ratio came out at 1 ± 0.054. For TTTTTTGACC, the switch fluorescence ratio worked out at 1.02 ± 0.044. TTTTTTGACT: the switch fluorescence ratio amounted to 0.995 ± 0.04. As to TTTTTTGAGA, the switch fluorescence ratio is 0.975 ± 0.017. Regarding TTTTTTGATT, the switch fluorescence ratio is 1.01 ± 0.02. As for TTTTTTGGGT, the figure is 0.994 ± 0.024; as for TTTTTTGTTC, 1.14 ± 0.3; as for TTTTTTGTTG, 0.987 ± 0.029. In the case of TTTTTTT, the switch fluorescence ratio worked out at 0.9671 ± 0.0074.

As to TTTTTTTGTA, the switch fluorescence ratio is 1.01 ± 0.042. For the sequence TTTTTTTTGT, the switch fluorescence ratio was determined as 1 ± 0.035. As for TTTTTTTTT, the figure is 1.01 ± 0.021.
